Data on two molecules can be found in patent US20150051149A1 (published 2015).

This assay addresses T1, human PXR-GST (Invitrogen) (human, UniProt O75469 111-434, limits assumed).
T1 construct: Captured on an anti-GST antibody chip; also called GST-PXR; GST-tagged PXR; not shown: GST tag
T1 sequence (looked up): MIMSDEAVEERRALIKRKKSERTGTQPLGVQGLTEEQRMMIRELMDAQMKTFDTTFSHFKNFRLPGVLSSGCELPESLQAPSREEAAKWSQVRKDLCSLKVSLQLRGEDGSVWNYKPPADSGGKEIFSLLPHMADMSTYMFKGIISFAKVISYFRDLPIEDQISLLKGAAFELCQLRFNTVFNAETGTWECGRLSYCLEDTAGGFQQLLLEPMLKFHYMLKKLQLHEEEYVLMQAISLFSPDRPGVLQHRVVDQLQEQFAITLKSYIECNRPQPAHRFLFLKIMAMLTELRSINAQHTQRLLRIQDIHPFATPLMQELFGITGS
Put plainly: SPR, Biacore T100, human PXR-GST captured on anti-GST antibody. (In general: Surface plasmon resonance follows binding to a sensor surface in real time, without labels.)

In general, kon refers to the second-order rate constant of association. Low values mean slow association, high ones fast association.

B1: Adnectin-3 (designed binder)
chain: MASTSGVSDVPRDLEVVAATPTSLLISWDAPAVPVSKYVIYYWPGALISSMQAFKVPGSKSTATISGLKPGVLYSIVVDALTGDGQGSYVWDPITITYRTEGSGSHHHHHH
On to B1, for which the association rate constant (kon) amounted to 16200 M⁻¹ s⁻¹.

B2: Adnectin-2 (designed binder)
chain: MASTSGVSDVPRDLEVVAATPTSLLISWDAPAVTVNNYRITYQPLLQGSSIQHFDVPGSKSTATISGLKPGVGYQITVYASTYTHSKAYYSLPISIYYRTEGSGSHHHHHH
For the molecule B2, the kon worked out at 162000 M⁻¹ s⁻¹.
